Test results published in US7732178B2, “Laccase enzymes and their uses” (AB Enzymes Oy, priority 2004, dated 2010).

Experiments:
[1] = Stain removal, tea soiling; parameters: key to Tea L* / Tea a* / Tea b*: CIE L*a*b* color coordinates from reflectance; details: for Tea L* / Tea a* / Tea b*: 60 min, pH 6
How it was run: (§1)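 Soiled swatches treated in McIlvaine citrate-phosphate buffer pH 6 for 60 min at 40, 50 or 60 °C. Laccase 200 nkat/g ± methyl syringate mediator 10 mg/g fabric (also 20 nkat/g and 2 mg/g at 40 °C). Stain removal from L*a*b* reflectance before versus after treatment.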

[2] = Denim bleaching at different temperatures; parameters: key to After laccase treatment L* / After laccase treatment b* / Increase of L*: CIE L*a*b* colour coordinates (illuminant D65), reflectance; details: for After laccase treatment L* / After laccase treatment b* / Increase of L*: face side of denim, 30 min, pH 6, enzyme 200 nkat/g, mediator 10 mg/g
Procedure: Lee Cooper jeans (MASI Company Oy, Finland) that were desized and treated with neutral ECOSTONE® cellulase were used as test material. Laccase treatments were performed in LP-2 Launder Ometer as follows. About 10 g of denim swatches (15×14 cm) were loaded into 1.2 liter containers containing 200 ml Mc Ilvaine's citrate phosphate buffer pH 5, 6 or 7 and the containers were temperated. Enzyme with or without the mediator (methyl syringate, DeniLite II Assist, Novozymes) was added as laccase activity units. Enzyme was dosed 200 nkat/g and the mediator 10 mg/g on the weight of fabric. […] The Launder Ometer was run at 50° C. for 30 min and after that the temperature in Launder was raised to 80° C. for 10 min. The swatches were carefully rinsed with warm water, dried half-dry in a tumbler and after that air dried.
The bleaching effect was evaluated by measuring the colour as reflectance values with the Minolta Chromameter CM 1000 (Minolta Co.) using L*a*b* color space coordinates (illuminant D65). The colour from both sides of the swatches was measured before and after the laccase treatment. Each measurement was the average of several measurements.
The test system and denim were as in Example 7, except that the conditions during the laccase and mediator treatment in Launder were 30 min, pH 6 and temperature 30-70° C. (DeniLite II Base also at 80° C.) and the enzyme was inactivated by alkaline treatment instead of raising the temperature in Launder as follows. After removing swatches from the containers they were soaked in warm water containing NaOH (pH 11.5) for 10 min and rinsed carefully with warm water. The swatches were dried half-dry in a tumbler and after that air dried. The bleaching effect was evaluated by measuring the colour as reflectance values as in Example 7.

[3] = Specific activity towards guaiacol; format: biochemical; details: 25 mM MES buffer, pH 5.5
Procedure: Specific activities of the purified T. arenaria and C. thermophilum laccases were determined towards different laccase substrates.

Decolorization of dyes = experiment: Decolorization of dyes; parameters: key to Decolorization of Cibacron Brilliant Red 3B-P, Time 30 min / Decolorization of Cibacron Brilliant Red 3B-P, Time 60 min: −: no visually detectable change; +: visually detectable fading of the colour; ++: considerable fading of the colour; +++: complete/almost complete decolorization; details: for Decolorization of Cibacron Brilliant Red 3B-P, Time 30 min / Decolorization of Cibacron Brilliant Red 3B-P, Time 60 min: dye 5 mg/50 ml, enzyme 100 nkat/50 ml, 50° C., pH 6
Procedure: The recombinant laccases CtLcc1, TaLcc2 and TaLcc4, derived from Trichoderma strains (Example 7) were tested for their ability to decolorize different dyes in the presence of the methyl syringate mediator (Example 7) or without it. The experiments were carried out in 100 ml shake flasks containing 50 ml of dye dissolved in citrate phosphate buffer pH 6. Dye concentration 5 mg/50 ml was used. Enzyme was dosed 100 nkat per 50 ml and the mediator 5 mg per 50 ml. Control samples contained only dye solution. The shake flasks were incubated at 50° C. for 30, 60 and 120 minutes. Samples of 3.5 ml were taken in test tubes for visual evaluation.

[4] = Stain removal, grass soiling; parameters: key to Grass L* / Grass a* / Grass b*: CIE L*a*b* color coordinates from reflectance; details: for Grass L* / Grass a* / Grass b*: 60 min, pH 6
How it was run: as §1

[5] = 40° C., enzyme 20 nkat/g + mediator 2 mg/g (Mediator only: 0 nkat/g)
[6] = 40° C., enzyme 200 nkat/g + mediator 10 mg/g (Mediator only: 0 nkat/g)
[7] = 40° C., enzyme 200 nkat/g, mediator 0 mg/g
[8] = 60° C., enzyme 200 nkat/g + mediator 10 mg/g (Mediator only: 0 nkat/g)
[9] = 60° C., enzyme 200 nkat/g, mediator 0 mg/g
[10] = CtLcc1 at 60° C., TaLcc2 at 50° C.

B1: CtLcc1: Chaetomium thermophilum ALKO 4265 laccase, SEQ ID NO: 47, produced in Trichoderma reesei (protein)
chain: MKFLTYATALLGALTAVVGAIPTRSGTKKKYIRDGPGPCHTPSNRACWAPGFDINTDYEVNTPNTGVTRNYTLTLTEEDNWTGPDGVVKEKIMLVNGKTLGPTIEANWGDWIEVKVINNLLTNGTSIHWHGIHQKGSNLHDGANGVTECPIPPNGGQRTYRFRAQQYGTSWYHSHFSAQYGNGIVGPIVIHGPASLPYDIDLGPFPLTDYYYKSADELVRHTQNNGPPFSDNVLFNGTGVHPQTGHGQYAKVTLTPGKRHRLRIINMSTENHFQVSLVGHQFTVIAADMVPVHSYTTDSLFLAVGQRYDVTIDASQTPGNYWFNVTFGGGFACGGSFNPNPAAIFHYEGAPDALPTDPGVPPRDHNCLDTLDLVPVVPRNVQVNQFVKKPENTLPVELSLGGTPLFVWKVNGSAIDVDWGNPVLQYVMDRNTSYRQADNIVEVNGVNQWTYWLIENDPNGAFSLPHPMHLHGHDFLIVGRSPDVPPGSNQRYNFDPATDIYRLRGQNPTRRDVAMLPAGGWLLLAFLTDNPGAWLFHCHIAWHVSGGLSVDFLERPNDLRNSILQHDKDEFNRVCNEWRTYWPNSPHPKIDSGLKHRWVEESEWLVR
modifications: Chaetomium thermophilum ALKO4265; (1)..(607) Deduced amino acid sequence of Chaetomium thermophilum ALKO4265 CtLcc1
- Tea L* [1, 5]: 76.34
- Tea a* [1, 5]: 5.10
- Tea b* [1, 5]: 23.89
- Tea L* [1, 6]: 77.70
- Tea a* [1, 6]: 4.26
- Tea b* [1, 6]: 24.50
- Tea L* [1, 7]: 76.22
- Tea a* [1, 7]: 5.37
- Tea b* [1, 7]: 22.68
- Tea L* [1, 8]: 79.76
- Tea a* [1, 8]: 3.52
- Tea b* [1, 8]: 22.16
- Tea L* [1, 9]: 77.10
- Tea a* [1, 9]: 4.84
- Tea b* [1, 9]: 21.10
- removal of tea soiling with the mediator [1, 10]: effective
- decolorization of denim (increase of lightness) compared to Denilite II Base ([2]; 40-50 ° C. and pH 6): more efficient
- After laccase treatment L* ([2]; 30° C.): 31.78
- After laccase treatment b* ([2]; 30° C.): −19.15
- Increase of L* ([2]; 30° C.): 2.44
- After laccase treatment L* ([2]; 40° C.): 34.43
- After laccase treatment b* ([2]; 40° C.): −18.77
- Increase of L* ([2]; 40° C.): 5.72
- After laccase treatment L* ([2]; 50° C., alkaline inactivation): 36.78
- After laccase treatment b* ([2]; 50° C., alkaline inactivation): −18.96
- Increase of L* ([2]; 50° C., alkaline inactivation): 8.26
- After laccase treatment L* ([2]; 60° C.): 37.40
- After laccase treatment b* ([2]; 60° C.): −18.29
- Increase of L* ([2]; 60° C.): 8.52
- After laccase treatment L* ([2]; 70° C.): 34.16
- After laccase treatment b* ([2]; 70° C.): −17.91
- Increase of L* ([2]; 70° C.): 5.23
- Specific activity on guaiacol [3]: 85 nkat/mg
- Decolorization of Cibacron Brilliant Red 3B-P, Time 30 min (Decolorization of dyes; mediator 0 mg/50 ml): −
- Decolorization of Cibacron Brilliant Red 3B-P, Time 60 min (Decolorization of dyes; mediator 0 mg/50 ml): −
- Decolorization of Cibacron Brilliant Red 3B-P, Time 30 min (Decolorization of dyes; mediator 5 mg/50 ml): +
- Decolorization of Cibacron Brilliant Red 3B-P, Time 60 min (Decolorization of dyes; mediator 5 mg/50 ml): +
- decolorization of Cibacron Brilliant Red 3B-P (Decolorization of dyes; in the presence of the mediator): partly decolorized
- Grass L* [4, 5]: 79.94
- Grass a* [4, 5]: −1.20
- Grass b* [4, 5]: 16.17
- Grass L* [4, 6]: 79.74
- Grass a* [4, 6]: 0.17
- Grass b* [4, 6]: 16.48
- Grass L* [4, 7]: 80.17
- Grass a* [4, 7]: −4.14
- Grass b* [4, 7]: 17.45
- Grass L* [4, 8]: 79.92
- Grass a* [4, 8]: −1.15
- Grass b* [4, 8]: 18.55
- Grass L* [4, 9]: 79.04
- Grass a* [4, 9]: −3.69
- Grass b* [4, 9]: 18.12
- removal of grass soiling with the mediator [4, 10]: effective
